Measurements as given in patent publication US20240059758A1 (CORAT THERAPEUTICS, published 2024).

Tests used:
[1] = molecular target: receptor binding domain (RBD) of SARS-CoV-2 glycoprotein S, wild-type (SARS-CoV-2, UniProt P0DTC2 319-591); test: binding study, chain shuffling (example 19)
RBD mutant K417N [2] = molecular target: T1, RBD mutant K417N (SARS-CoV-2, UniProt P0DTC2 319-591); test: binding study, chain shuffling
RBD mutant N501Y = RBD mutant N501Y (SARS-CoV-2, UniProt P0DTC2 319-591); test: binding study, chain shuffling
RBD mutant K417N [3] = molecular target: T1, RBD mutant K417N; test: binding study, FIG. 46

Measured: binding result

B1: hybrid antibody VL YU536-D04 / VH STE90-C11 (antibody, V domains shown)
VH: QVQLVESGGGLVQPGGSLRLSCAASGLTVSSNYMSWVRQAPGKGLEWVSVIYSGGSTYYADSVKGRFTISRDDSKNTLYLQMNSLRAEDTAVYYCARDVADAFDIWGQGTMVTVSS
VL: DIQLTQSPSSLSASVGDRVTITCRASQGISSYLAWYQQKPGKAPKLLIYAASTLQSGVPSRFSGSGSGTDFTLTISSLQPEDFATYYCQQLNSYPITFGQGTKLEIK
binds: [1] | RBD mutant K417N [2] | RBD mutant N501Y

B2: hybrid antibody VL YU536-D04 / VH YU537-H11 (antibody, V domains shown)
VH: EVQLLESGGGLIQPGGSLRLSCAASGLTVSSNYMSWVRQAPGKGLEWVSVIYSGGSTYYADSVKGRFTISRDNSKNALYLQMNSLRAEDTAVYYCARGESGSPYGMDVWGQGTLVTVSS
VL: DIQLTQSPSSLSASVGDRVTITCRASQGISSYLAWYQQKPGKAPKLLIYAASTLQSGVPSRFSGSGSGTDFTLTISSLQPEDFATYYCQQLNSYPITFGQGTKLEIK
binds: [1] | RBD mutant K417N [2] | RBD mutant N501Y

B3: hybrid antibody VL YU537-H11 / VH STE90-C11 (antibody, V domains shown)
VH: QVQLVESGGGLVQPGGSLRLSCAASGLTVSSNYMSWVRQAPGKGLEWVSVIYSGGSTYYADSVKGRFTISRDDSKNTLYLQMNSLRAEDTAVYYCARDVADAFDIWGQGTMVTVSS
VL: QSVLTQPPSVSAAPGQKVTISCSGSSSNIGNNYVSWYQQLPGTAPKLLIYDTNKRPSGIPDRFSGSKSGTSATLGITGLQTGDEADYYCATWDSSLSVGVFGGGTKLTVL
binds: [1] | RBD mutant K417N [2] | RBD mutant N501Y

B4: hybrid antibody VL STE90-C11 / VH YU536-D04 (antibody, V domains shown)
VH: QVQLVQSGGGLVQPGGSLRLSCAASGLTVSSNYMSWVRQAPGKGLEWVSVIYSGGSTYYADSVKGRFIISRDNSKNTLYLQMNSLRAEDTAVYYCARDLVVMGLDVWGKGTLVTVSS
VL: DIVMTQSPSFLSASVGDRVTITCRASQGISSYLAWYQQKPGKAPKLLIYAASTLQSGVPSRFSGSGSGTEFTLTISSLQPEDFATYYCQQLNSYPPFTFGPGTKVDIK
binds: [1] | RBD mutant N501Y | RBD mutant K417N [3]

B5: hybrid antibody VL STE90-C11 / VH YU537-H11 (antibody, V domains shown)
VH: EVQLLESGGGLIQPGGSLRLSCAASGLTVSSNYMSWVRQAPGKGLEWVSVIYSGGSTYYADSVKGRFTISRDNSKNALYLQMNSLRAEDTAVYYCARGESGSPYGMDVWGQGTLVTVSS
VL: DIVMTQSPSFLSASVGDRVTITCRASQGISSYLAWYQQKPGKAPKLLIYAASTLQSGVPSRFSGSGSGTEFTLTISSLQPEDFATYYCQQLNSYPPFTFGPGTKVDIK
binds: [1] | RBD mutant K417N [2] | RBD mutant N501Y

B6: hybrid antibody VL YU537-H11 / VH YU536-D04 (antibody, V domains shown)
VH: QVQLVQSGGGLVQPGGSLRLSCAASGLTVSSNYMSWVRQAPGKGLEWVSVIYSGGSTYYADSVKGRFIISRDNSKNTLYLQMNSLRAEDTAVYYCARDLVVMGLDVWGKGTLVTVSS
VL: QSVLTQPPSVSAAPGQKVTISCSGSSSNIGNNYVSWYQQLPGTAPKLLIYDTNKRPSGIPDRFSGSKSGTSATLGITGLQTGDEADYYCATWDSSLSVGVFGGGTKLTVL
binds: [1] | RBD mutant K417N [2] | RBD mutant N501Y
